Here are results for four molecules from patent US6872537B1, “Assays for the detection of microtubule depolymerization inhibitors” (Regents of the University of California, priority 1998, dated 2005).

For data set [1] the following is noted: literature values for comparison; cited from earlier work.
Data set [2] can be described thus: ATPase assay (modified malachite green method). The class given is biochemical, Strongylocentrotus purpuratus. The method, then: ATPase activity was measured by a modified malachite green method (Kodama et al. (1986) J. Biochem. 99: 1465-1472). ATPase reactions of 50-100 μl, were carried out in a buffer previously used for measuring the ATPase activity of native katanin [20 mM K-HEPES pH 8.0, 25 mM potassium glutamate 2 mM MgCl2, 10% glycerol (v/v), 0.02% Triton X-100 (w/v), 1 mg/ml BSA] (McNally and Vale (1993) Cell, 75: 419-429), except that soybean trypsin inhibitor (SBTI) was replaced by BSA as a carrier protein because SBTI increased background phosphate contamination. An ATP regenerating system, consisting of 0.5-1.0 mM phosphoenol pyruvate and 2 units of pyruvate kinase, was included to minimize the inhibition by ADP observed previously for native katanin (McNally and Vale (1993) Cell, 75: 419-429). Microtubules were prepared from bovine brain tubulin (Hyman et al. (1990) Meth. Enzymol. 196: 303-319; and Williams and Lee (1982) Meth Enzymol. 85B: 376-385). After assembly, microtubules were sedimented (230,000×g; 10 min), resuspended in ATPase buffer lacking BSA, and the polymers were resuspended by repeated passage through a 27 gauge needle. Microtubule concentration was determined by measuring the absorbance at 275 nm in 6 M guanidine HCl by using a molecular mass of 110 kDa and an extinction coefficient of 1.03 ml mg^−1 cm^−1 (Hackney (1988) Proc. Natl. Acad. Sci. USA, 85: 6314-6318). ATPase reactions were carried out at room temperature, and were initiated by addition of katanin.

A further data set relates to microtubules. Kind of data set: DAPI fluorescence microtubule disassembly (severing) assay. The class given is biochemical, bovine. The settings on record: 2 μM microtubules, 0.2 μM protein. The protocol: ATPase activity was measured by a modified malachite green method (Kodama et al. (1986) J. Biochem. 99: 1465-1472). ATPase reactions of 50-100 μl, were carried out in a buffer previously used for measuring the ATPase activity of native katanin [20 mM K-HEPES pH 8.0, 25 mM potassium glutamate 2 mM MgCl2, 10% glycerol (v/v), 0.02% Triton X-100 (w/v), 1 mg/ml BSA] (McNally and Vale (1993) Cell, 75: 419-429), except that soybean trypsin inhibitor (SBTI) was replaced by BSA as a carrier protein because SBTI increased background phosphate contamination. […] Microtubule concentration was determined by measuring the absorbance at 275 nm in 6 M guanidine HCl by using a molecular mass of 110 kDa and an extinction coefficient of 1.03 ml mg^−1 cm^−1 (Hackney (1988) Proc. Natl. Acad. Sci. USA, 85: 6314-6318). […]
DAPI severing assays were performed using conditions where the change in fluorescence intensity was linear with the amount of tubulin polymer added (Heusele et al. (1987) Eur. J. Biochem. 165: 613-620). […] The reaction volume was 80 μL, and fluorescence intensity was measured by exciting at 370 nm, and measuring the emission at 450 nm using a model 8100 fluorimeter (SLM Instruments) in photon counting mode.

The subject of data set [3] is Taxol-stabilized, rhodamine-labeled microtubules. As to the kind of experiment: Microscope-based microtubule severing assay. It counts as biochemical. The protocol:
Microscope-based severing assays were performed using previously published procedures (McNally and Vale (1993) Cell, 75: 419-429), except that microtubules were immobilized by first perfusing flow cells with a bacterially expressed kinesin mutant that binds strongly to microtubules but is unable to hydrolyze ATP (K560, G234A mutant; R. Vale and E. Taylor, unpublished results). Assays were performed in 20 mM Hepes (pH 7.5), 2 mM MgCl2, 1 mM ATP with an oxygen scavenger system consisting of glucose oxidase (220 μg/ml), catalase (36 μg/ml), glucose (22.5 mM), and 2-mercaptoethanol (71.5 mM). Images were captured using a cooled, slow-scan CCD (Photometerics) and processed using Adobe Photoshop.

B1: NSF: recombinant NSF, AAA ATPase cited for comparison (protein, UniProt P46459 1-744, looked up)
Vesicle-fusing ATPase: MAGRSMQAARCPTDELSLTNCAVVNEKDFQSGQHVIVRTSPNHRYTFTLKTHPSVVPGSIAFSLPQRKWAGLSIGQEIEVSLYTFDKAKQCIGTMTIEIDFLQKKSIDSNPYDTDKMAAEFIQQFNNQAFSVGQQLVFSFNEKLFGLLVKDIEAMDPSILKGEPATGKRQKIEVGLVVGNSQVAFEKAENSSLNLIGKAKTKENRQSIINPDWNFEKMGIGGLDKEFSDIFRRAFASRVFPPEIVEQMGCKHVKGILLYGPPGCGKTLLARQIGKMLNAREPKVVNGPEILNKYVGESEANIRKLFADAEEEQRRLGANSGLHIIIFDEIDAICKQRGSMAGSTGVHDTVVNQLLSKIDGVEQLNNILVIGMTNRPDLIDEALLRPGRLEVKMEIGLPDEKGRLQILHIHTARMRGHQLLSADVDIKELAVETKNFSGAELEGLVRAAQSTAMNRHIKASTKVEVDMEKAESLQVTRGDFLASLENDIKPAFGTNQEDYASYIMNGIIKWGDPVTRVLDDGELLVQQTKNSDRTPLVSVLLEGPPHSGKTALAAKIAEESNFPFIKICSPDKMIGFSETAKCQAMKKIFDDAYKSQLSCVVVDDIERLLDYVPIGPRFSNLVLQALLVLLKKAPPQGRKLLIIGTTSRKDVLQEMEMLNAFSTTIHVPNIATGEQLLEALELLGNFKDKERTTIAQQVKGKKVWIGIKKLLMLIEMSLQMDPEYRVRKFLALLREEGASPLDFD
Turning to B1, the “ATPase activity of other AAA family members” value in data set [1] was 0.08 ATP/sec.

B2: Katanin: microtubule-severing heterodimer of 60 kDa and 80 kDa subunits; values match recombinant p60/p80 (protein)
chain 1: HHHHHHMSVDEICENTKMGREYALLGNYETSLVYYQGVLQQIQKLLTSVHEPQRKHQWQTIRQELSQEYEHVKNITKTLNGFKSEPAAPEPAPNHGRAAPFSHHQHAAKPAAAEPARDPDVWPPPTPVDHRPSPPYQRAARKDPPRRSEPSKPANRAPGNDRGGRGPSDRRGDARSGGGGRGGARGSDKDKNRGGKSDKDKKAPSGEEGDEKKFDPAGYDKDLVENLERDIVQRNPNVHWADIAGLTEAKRLLEEAVVLPLWMPDYFKGIRRPWKGVLMVGPPGTGKTMLAKAVATECGTTFFNVSSASLTSKYHGESEKLVRLLFEMARFYAPSTIFIDEIDSICSKRGTGSEHEASRRVKSELLIQMDGVSGPSAGEESSKMVMVLAATNFPWDIDEALRRRLEKRIYIPLPEIDGREQLLRINLKEVPLADDIDLKSIAEKMDGYSGADITNVCRDASMMAMRRRIQGLRPEEIRHIPKEELNQPSTPADFLLALQKVSKSVGKEDLVKYMAWMEEFGSV
chain 2: HHHHHHMATKRAWKLQELVAHSSNVNCLALGPMSGRVMVTGGEDKKVNLWAVGKQNCIISLSGHTSPVDSVKFNSSEELVVAGSQSGTMKIYDLEPAKIVRTLTGHRNSIRCMDFHPFGEFVASGSTDTNVKLWDVRRKGCIYTYKGHSDQVNMIKFSPDGKWLVTASEDTTIKLWDLTMGKLFQEFKNHTGGVTGIEFHPNEFLLASGSSDRTVQFWDLETFQLVSSTSPGASAVRSISFHPDGSYLFCSSQDMLHAFGWEPIRCFDTFSVFWGKVADTVIASTQLIGASFNATNVSVYVADLSRMSTTGIAQEPQSQPSKTPSGGAEEVPSKPLTASGRKNFVRERPHTTSSKQRQPDVKSEPERQSPTQDEGVKDDDATDIKDPDSYAKIFSPKTRVDHSPERNAQPFPAPLDVPGAQEPEPFKHPPKPAAAAAVAPVSRAPAPSASDWQPAQANPAPNRVPAATKPVPAQEVAPSRKPDPISTIIPSDRNKPANLDMDAFLPPAHAQQAPRVNAPASRKQSDSERIEGLRKGHDSMCQVLSSRHRNLDVVRAIWTAGDAKTSVESVVNMKDQAILVDILNIMLLKKSLWNLDMCVVVLPRLKELLSSKYENYVHTSCACLKLILKNFTSLFNQNIKCPPSGIDITREERYNKCSKCYSYLIATRGYVEEKQHVSGKLGSSFRELHLLLDQLE
Regarding B2, in data set [2], the “basal ATPase activity” value is listed as 0.3 ATP/katanin/sec and the “maximal microtubule-stimulated ATPase rate” value came out at 3 ATP/katanin/sec.

B3: p80: baculovirus-expressed His-tagged S. purpuratus katanin p80 subunit (SEQ ID NO:2), contains WD40 repeats (protein, listed as Strongylocentrotus purpuratus)
chain: MATKRAWKLQELVAHSSNVNCLALGPMSGRVMVTGGEDKKVNLWAVGKQNCIISLSGHTSPVDSVKFNSSEELVVAGSQSGTMKIYDLEPAKIVRTLTGHRNSIRCMDFHPFGEFVASGSTDTNVKLWDVRRKGCIYTYKGHSDQVNMIKFSPDGKWLVTASEDTTIKLWDLTMGKLFQEFKNHTGGVTGIEFHPNEFLLASGSSDRTVQFWDLETFQLVSSTSPGASAVRSISFHPDGSYLFCSSQDMLHAFGWEPIRCFDTFSVFWGKVADTVIASTQLIGASFNATNVSVYVADLSRMSTTGIAQEPQSQPSKTPSGGAEEVPSKPLTASGRKNFVRERPHTTSSKQRQPDVKSEPERQSPTQDEGVKDDDATDIKDPDSYAKIFSPKTRVDHSPERNAQPFPAPLDVPGAQEPEPFKHPPKPAAAAAVAPVSRAPAPSASDWQPAQANPAPNRVPAATKPVPAQEVAPSRKPDPISTIIPSDRNKPANLDMDAFLPPAHAQQAPRVNAPASRKQSDSERIEGLRKGHDSMCQVLSSRHRNLDVVRAIWTAGDAKTSVESVVNMKDQAILVDILNIMLLKKSLWNLDMCVVVLPRLKELLSSKYENYVHTSCACLKLILKNFTSLFNQNIKCPPSGIDITREERYNKCSKCYSYLIATRGYVEEKQHVSGKLGSSFRELHLLLDQLE
modifications: His tag; katanin p80 subunit
For B3, the “rate of microtubule disassembly, DAPI fluorescence decrease (in words)” value in the data set on microtubules was “did not cause a change in fluorescence”. The “microtubule severing (in words)” value in data set [3] (concentrations 5-fold higher than those used for p60 (0.5 μM)) was “unable to sever microtubules”. Besides, in data set [2], the “ATPase activity (in words)” value was “no detectable ATPase activity”.

B4: p60: baculovirus-expressed His-tagged S. purpuratus katanin p60 subunit (SEQ ID NO:1), AAA ATPase (protein, listed as Strongylocentrotus purpuratus)
chain: MSVDEICENTKMGREYALLGNYETSLVYYQGVLQQIQKLLTSVHEPQRKHQWQTIRQELSQEYEHVKNITKTLNGFKSEPAAPEPAPNHGRAAPFSHHQHAAKPAAAEPARDPDVWPPPTPVDHRPSPPYQRAARKDPPRRSEPSKPANRAPGNDRGGRGPSDRRGDARSGGGGRGGARGSDKDKNRGGKSDKDKKAPSGEEGDEKKFDPAGYDKDLVENLERDIVQRNPNVHWADIAGLTEAKRLLEEAVVLPLWMPDYFKGIRRPWKGVLMVGPPGTGKTMLAKAVATECGTTFFNVSSASLTSKYHGESEKLVRLLFEMARFYAPSTIFIDEIDSICSKRGTGSEHEASRRVKSELLIQMDGVSGPSAGEESSKMVMVLAATNFPWDIDEALRRRLEKRIYIPLPEIDGREQLLRINLKEVPLADDIDLKSIAEKMDGYSGADITNVCRDASMMAMRRRIQGLRPEEIRHIPKEELNQPSTPADFLLALQKVSKSVGKEDLVKYMAWMEEFGSV
modifications: His tag; katanin p60 subunit
As for B4, in the data set with microtubules, the “rate of microtubule disassembly, DAPI fluorescence decrease (in words)” value is recorded as “half as active as p60/p80”. In addition, the “time until microtubules were completely disassembled” value in data set [3] (0.1 μM protein, 1 mM ATP) was determined as 5 min. For the same molecule, the “microtubule concentration at peak ATP turnover stimulation” value in data set [2] (decreases at higher microtubule concentrations) is given as approximately 2 μM tubulin.
